According to US20230416352A1:
Changes are numbered by the printed parent chain.

B1: Hu164-57wl (antibody, human IgG1, lambda, V domains shown)
VH: EVTLKESGPVLVKPTETLTLTCTVSGFSLSTFGVHWIRQPPGKALEWLAVIWRRGGTDYNAAFMSRLTISKDTSKSQVVLTMTNMDPVDTATYYCARDGGFDYWGQGTTVTVSS
VL: ETVVTQEPSLTVSPGGTVTLTCRSSIGAVTTSNYANWVQQKPGQAFRGLIGGTSNRAPWTPARFSGSLLGGKAALTLSGVQPEDEAEYYCALWYSTHYVFGGGTKLTVLG
B2: Hu164-69wl (antibody, human IgG1, lambda, V domains shown)
VH: B1 VH with A44G, A49G, L80F
VL: ESVVTQPPSVSGAPGQRVTISCRSSIGAVTTSNYANWVQQLPGTAFKGLIGGTSNRAPGVPDRFSGSKSGTSASLAITGLQAEDEADYYCALWYSTHYVFGGGTKLTVLG
B3: Hu164-77wl (antibody, human IgG1, lambda, V domains shown)
VH: EVQLQESGPGLVKPSQTLSLTCTVSGFSISTFGVHWIRQHPGKGLEWIGVIWRRGGTDYNAAFMSRVTISKDTSKNQVSLKLSSVTAADTAVYYCARDGGFDYWGQGTTVTVSS
VL: B1 VL
B4: Hu164-68wl (antibody, human IgG1, lambda, V domains shown)
VH: B1 VH with A44G, A49G, L80F
VL: ETVVTQEPSFSVSPGGTVTLTCRSSIGAVTTSNYANWVQQTPGQAFRGLIGGTSNRAPGVPDRFSGSILGNKAALTITGAQADDESDYYCALWYSTHYVFGGGTKLTVLG
B5: Hu164-87wl (antibody, human IgG1, lambda, V domains shown)
VH: B3 VH with I48L, V67L, L80F
VL: B1 VL
B6: Hu95-51yk (antibody, human IgG1, kappa, V domains shown)
VH: EVQLVQSGAEVKKPGASVKVSCRASGFTFTNYAIHWVKQAPGQRLEWMGLVYPYTGGTAYNQKFKDKVTLTFDTSASTAYMELSSLRSEDTAVYYCARWGMIPGTNSYFDVWGQGTTVTVSS
VL: EIVLTQSPATLSLSPGERATLSCRASSSVSYIHWYQQKPGQAPRPWIYATSNLASGIPARFSGSGSGTDYTLTISRLEPEDFAVYYCQQWNSNPWTFGGGTKVEIKR
B7: Hu147-11wk (antibody, human IgG1, kappa, V domains shown)
VH: EVQLVESGGGLVQPGGSLRLSCAASGFTFSTYAMNWVRQAPGKGLEWVGRIRTKSNNYATYYADSVKDRFTISRDDSKNSLYLQMNSLKTEDTAVYYCVETGFAYWDQGTLVTVSS
VL: EIVLTQSPATLSLSPGERATLSCSASSSVSYMHWFQQKPGQSPRLLIYSTSNLASGIPARFSGSGSGTDYTLTISSLEPEDFAVYYCQQRSSYPLTFGQGTKLEIKR
B8: Hu147-21wk (antibody, human IgG1, kappa, V domains shown)
VH: B7 VH with S30N, G49A
VL: B7 VL
B9: Hu147-31wk (antibody, human IgG1, kappa, V domains shown)
VH: B7 VH with T28S, S30N, G49A, K78E, N79S
VL: B7 VL
B10: Hu147-32wk (antibody, human IgG1, kappa, V domains shown)
VH: B7 VH with T28S, S30N, G49A, K78E, N79S
VL: B7 VL with R44K
B11: Hu147-23wk (antibody, human IgG1, kappa, V domains shown)
VH: B7 VH with S30N, G49A
VL: B7 VL with R44K, L46W, I57V
B12: Hu147-22wk (antibody, human IgG1, kappa, V domains shown)
VH: B7 VH with S30N, G49A
VL: B7 VL with R44K
B13: Hu147-34wk (antibody, human IgG1, kappa, V domains shown)
VH: B7 VH with T28S, S30N, G49A, K78E, N79S
VL: DIQMTQSPSSLSASVGDRVTITCSASSSVSYMHWFQQKPGKSPKLLIYSTSNLASGVPSRFSGSGSGTDYTLTISSLQPEDFATYYCQQRSSYPLTFGQGTKLEIKR
B14: Hu147-15wk (antibody, human IgG1, kappa, V domains shown)
VH: B7 VH
VL: B13 VL with M4L, L46W
B15: Hu147-13wk (antibody, human IgG1, kappa, V domains shown)
VH: B7 VH
VL: B7 VL with R44K, L46W, I57V
B16: Hu147-24wk (antibody, human IgG1, kappa, V domains shown)
VH: B7 VH with S30N, G49A
VL: B13 VL
B17: Hu147-33wk (antibody, human IgG1, kappa, V domains shown)
VH: B7 VH with T28S, S30N, G49A, K78E, N79S
VL: B7 VL with R44K, L46W, I57V
B18: Hu147-14wk (antibody, human IgG1, kappa, V domains shown)
VH: B7 VH
VL: B13 VL
B19: Hu147-12wk (antibody, human IgG1, kappa, V domains shown)
VH: B7 VH
VL: B7 VL with R44K

Biological target: Cynomolgus monkey CTGF-Fc (cynomolgus monkey)
Assay: ELISA, cyno-CTGF-mFc captured by anti-mFc

Chain of Cynomolgus monkey CTGF-Fc (cynomolgus monkey) (P29279 other isoform, or with tags, fused parts or gaps limits assumed): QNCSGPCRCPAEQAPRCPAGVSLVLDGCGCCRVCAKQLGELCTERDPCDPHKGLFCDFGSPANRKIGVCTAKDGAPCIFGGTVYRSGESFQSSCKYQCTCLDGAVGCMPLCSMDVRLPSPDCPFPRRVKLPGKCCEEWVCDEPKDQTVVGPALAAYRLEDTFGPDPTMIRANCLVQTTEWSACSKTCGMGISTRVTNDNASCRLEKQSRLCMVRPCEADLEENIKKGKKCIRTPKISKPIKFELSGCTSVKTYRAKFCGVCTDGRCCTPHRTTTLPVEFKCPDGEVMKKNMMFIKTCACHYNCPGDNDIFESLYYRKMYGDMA

| EC50 [pM] | Binder |
| --- | --- |
| 29 | B1 |
| 32 | B2 |
| 38 | B3 |
| 36 | B4 |
| 34 | B5 |
| 59 | B6 |
| 52 | B7 |
| 53 | B8 |
| 70 | B9 |
| 79 | B10 |
| 63 | B11 |
| 73 | B12 |
| 144 | B13 |
| 53 | B14 |
| 43 | B15 |
| 80 | B16 |
| 44 | B17 |
| 77 | B18 |
| 62 | B19 |
